In patent US8507651B2, “Treatment of diseases and conditions mediated by increased phosphorylation” (DMI Acquisition Corp., priority 2002, dated 2013):

Test system: IL-8 release by Jurkat cells
Test: Inhibition of IL-8 release from PMA/ionomycin-stimulated Jurkat cells, IL-8 ELISA of supernatants (Example 1)
Assay type: cell-based, human
Settings: PMA and ionomycin; for IL-8 / Percent Inhibition Of IL-8 Release: 24 hours; for IL-8: positive control 1119.2; for Percent Inhibition Of IL-8 Release: vs positive control; for Inhibition of IL-8 release as compared to the positive control (in words): summary of Table 1
Experimental: Jurkat cells (American Type Culture Collection (ATCC), Rockville, Md.) were cultured (1×10^6 cells per 0.5 ml culture) in IMDM culture medium (ATCC) containing insulin transferrin selenite solution (ITSS; Sigma) with and without phosvitin or BSA at 37° C., 5% CO2, for 30 minutes. Then, phorbol-12-myristate-13-acetate (PMA; […]; Sigma) and ionomycin ([…]; Sigma) were added to stimulate the cells, and the cells were further cultured at 37° C., 5% CO2, for 24 hours.
Cell culture supernatants were analyzed for IL-8 content by ELISA. The IL-8 ELISA was performed as follows. Anti-human IL-8 antibody (Pierce Endogen, Rockford, Ill.; catalogue number M801-E, lot number CK41959) was diluted to 1 μg/ml in phosphate buffered saline, pH 7.2-7.4, and 100 μl of the diluted antibody was added to each well of Nunc Maxisorb ELISA strip plates. The plates were incubated overnight at room temperature. The liquid was aspirated from the wells, and the plates were blotted on a paper towel. Then, 200 μl of assay buffer (phosphate buffered saline, pH 7.2-7.4, containing 4% BSA) were added to each well, and the plates were incubated for 1 hour at room temperature. The liquid was aspirated from the wells, and the wells were washed 3 times with wash buffer (50 mM Tris, 0.2% Tween-20, pH 7.9-8.1) and were then blotted on a paper towel. Standards and supernatant samples (50 μl/well; standards were diluted in assay buffer) were added to the wells, and the plates were incubated for 1 hour at room temperature with gentle shaking. The liquid was aspirated, the wells were washed 3 times with wash buffer, and the plates were then blotted on a paper towel. Then, 100 μl of biotin-labeled anti-human IL-8 (Pierce Endogen, Rockford, Ill.; catalogue number M802-E, lot number CE49513), diluted to 60 ng/ml in assay buffer, were added to each well. The plates were incubated for 1 hour at room temperature, the liquid was aspirated, the wells were washed 3 times with wash buffer, and the plates were blotted on a paper towel. Then, 100 μl of HRP-conjugated streptavidin (Pierce Endogen, Rockford, Ill.; catalogue number N100) in assay buffer, were added to each well. The plates were incubated for 30 minutes at room temperature, the liquid was aspirated, the wells were washed 3 times with wash buffer, and the plates were blotted on a paper towel. Finally, 100 μl of TMB substrate solution (Pierce Endogen, Rockford, Ill.; catalogue number N301) were added to each well. The plates were incubated for 30 minutes at room temperature. The reaction was stopped by adding 100 μl/well of 0.18 M H2SO4. The optical densities at 450 mu and 530 nm were read on an ELISA plate reader and the difference (OD 450-OD 530) calculated.

What does the source list for “Sigma BSA (untreated): Bovine serum albumin from Sigma (ELIS grade, low fatty acid and IgG), used as received [reference compound]”?
IL-8 (1.0 mg/ml sample): 1048.1 pg/mL; Percent Inhibition Of IL-8 Release (1.0 mg/ml sample): 6.3%; Inhibition of IL-8 release as compared to the positive control (in words): did not significantly inhibit the release of IL-8

B1: chicken egg yolk phosvitin (dephosphorylated): Phosvitin extracted from the yolks of chicken eggs and dephosphorylated; estimated about 20-50% dephosphorylated (protein, UniProt P02845 1112-1328, looked up)
Phosvitin: AEFGTEPDAKTSSSSSSASSTATSSSSSSASSPNRKKPMDEEENDQVKQARNKDASSSSRSSKSSNSSKRSSSKSSNSSKRSSSSSSSSSSSSRSSSSSSSSSSNSKSSSSSSKSSSSSSRSRSSSKSSSSSSSSSSSSSSKSSSSRSSSSSSKSSSHHSHSHHSGHLNGSSSSSSSSRSVSHHSHEHHSGHLEDDSSSSSSSSVLSKIWGRHEIYQ
modifications: Phosvitin partially dephosphorylated
notes: Phosvitin extracted from the yolks of chicken eggs and dephosphorylated; estimated about 20-50% dephosphorylated
For B1, which “IL-8” value (0.1 mg/ml sample) is on record?
Its value is 1024.7 pg/mL.

What about the “Percent Inhibition Of IL-8 Release” value (0.1 mg/ml sample) of the same molecule?
The value was 6.4%.

And the “IL-8” value (0.5 mg/ml sample)?
The value was 830.4 pg/mL.

What about the “Percent Inhibition Of IL-8 Release” value (0.5 mg/ml sample) of the same molecule?
Its value is 25.8%.

And the “IL-8” value (1.0 mg/ml sample)?
The value was 686.9 pg/mL.

What about the “Percent Inhibition Of IL-8 Release” value (1.0 mg/ml sample) of the same molecule?
Its value is 38.6%.

And the “Inhibition of IL-8 release as compared to the positive control (in words)” value?
The value was “inhibited IL-8 release as compared to the positive control in a dose-dependent fashion”.

B2: Sigma phosvitin (untreated): Chicken phosvitin purchased from Sigma Chemical Co., used as received without dephosphorylation (protein, UniProt P02845 1112-1328, looked up)
Phosvitin: B1 Phosvitin
modifications: Phosvitin
notes: Chicken phosvitin purchased from Sigma Chemical Co., used as received without dephosphorylation
Which “IL-8” value (1.0 mg/ml sample) does the source give for B2 here?
Its value is 1153.6 pg/mL.

And the “Percent Inhibition Of IL-8 Release” value (1.0 mg/ml sample)?
The value was 0%.

What about the “Inhibition of IL-8 release as compared to the positive control (in words)” value of the same molecule?
The value was “did not significantly inhibit the release of IL-8”.
